Source: patent US20220395553A1 (COHBAR, published 2022)
Square brackets hold non-standard residues; d marks the D form. Ends that are not written are not given here.

Experiments:
[1] = target: T1, SNAP tagged-CXC4 receptor labeled with terbium (Tag-lite CXCR4 cells, HEK293) (UniProt P61073 1-352, SNAP tag labeled with terbium fluorescent dye); test: HTRF competition on Tag-lite CXCR4 HEK293 cells; competitor labelled CXCL12
T1 construct: whole, on cells; Bought frozen cells (PerkinElmer-CisBio), HEK293 transiently expressing the receptor; also called terbium labeled CXCR receptor
T1 sequence (P61073 whole entry): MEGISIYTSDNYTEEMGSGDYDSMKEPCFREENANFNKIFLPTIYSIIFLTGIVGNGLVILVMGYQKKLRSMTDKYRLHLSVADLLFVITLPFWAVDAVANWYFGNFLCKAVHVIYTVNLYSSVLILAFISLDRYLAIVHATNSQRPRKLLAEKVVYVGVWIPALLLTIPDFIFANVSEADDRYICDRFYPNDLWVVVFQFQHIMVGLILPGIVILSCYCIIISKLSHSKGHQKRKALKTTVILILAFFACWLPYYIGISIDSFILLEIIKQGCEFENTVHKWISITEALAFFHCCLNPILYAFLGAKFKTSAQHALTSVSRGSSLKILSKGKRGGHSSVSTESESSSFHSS
Experimental: Peptides were initially prepared as 1 mM stock in H₂O and tested at a final concentration of 400 nM. Following the manufacture's protocol, a frozen aliquot of Tag-lite CXCR4 cells was thawed and immediately seeded onto 384-well plates in TLB. Immediately following the addition of cells, 400 nM peptide (final concentration) in TLB was added to the appropriate well. […] The plates were covered in aluminum foil and left at room temperature for 3 hours. Following the 3 hour incubation period, the plates were removed from the incubator and fluorescence measured using a Cytation 1 plate reader using a HTRF filter cube ([…]; BioTek; Winooski, Vt.).

[2] = target: CXCR4 on cultured U937 and Jurkat cells (human, UniProt P61073 1-352); test: cell-based or functional assay
Sequence of CXCR4 on cultured U937 and Jurkat cells (P61073 whole entry): as above

[3] = target: ProLink tagged human CXCR4 (C2C12 CXCR4 β-Arrestin cell line) (human, UniProt P61073 1-352); test: cell-based or functional assay
Sequence of ProLink tagged human CXCR4 (C2C12 CXCR4 β-Arrestin cell line) (P61073 whole entry): as above

[4] = target: T1, SNAP tagged-CXC4 receptor labeled with …; test: HTRF competition on Tag-lite CXCR4 HEK293 cells; competitor labelled CXCL12; remark: listed apart in the source
Experimental: Peptides were initially prepared as 1 mM stock in H₂O. […] Following the manufacture's protocol, a frozen aliquot of Tag-lite CXCR4 cells was thawed and immediately seeded onto 384-well plates in TLB. […] The plates were covered in aluminum foil and left at room temperature for 3 hours. Following the 3 hour incubation period, the plates were removed from the incubator and fluorescence measured using a Cytation 1 plate reader using a HTRF filter cube ([…]; BioTek; Winooski, Vt.).

LERYHHS[dA]RSSLRPFTK [SEQ ID NO: 61]
Percent Inhibition of CXCR4/CXCL12 Binding (400 nM peptide) [1]: 54% | Percent Inhibition of CXCR4/CXCL12 Induced p-MEK (100 nM Test Article) [2]: 15% | Percent Inhibition of CXCR4/CXCL12 Induced p-MEK (1 µM Test Article) [2]: 46% | IC50 for Inhibition of CXCR4 Activation (β-Arrestin recruitment) [3]: 8 nM

[dA]ERYHHS[dA]RSSLRPYTK [SEQ ID NO: 35]
IC50 [4]: 6310 nM | Percent Inhibition of CXCR4/CXCL12 Binding (400 nM peptide) [1]: -13% | Percent Inhibition of CXCR4/CXCL12 Induced p-MEK (100 nM Test Article) [2]: -7% | Percent Inhibition of CXCR4/CXCL12 Induced p-MEK (1 µM Test Article) [2]: -6% | IC50 for Inhibition of CXCR4 Activation (β-Arrestin recruitment) [3]: 291 nM

LERYHHSVRSSLRPY [SEQ ID NO: 19]
Percent Inhibition of CXCR4/CXCL12 Binding (400 nM peptide) [1]: 44% | IC50 for Inhibition of CXCR4 Activation (β-Arrestin recruitment) [3]: 19 nM

LERYHHSVRSSLRP [SEQ ID NO: 20]
Percent Inhibition of CXCR4/CXCL12 Binding (400 nM peptide) [1]: 37% | IC50 for Inhibition of CXCR4 Activation (β-Arrestin recruitment) [3]: 37 nM

LERYHHS[dA]RSTLRPYTK [SEQ ID NO: 77]
Percent Inhibition of CXCR4/CXCL12 Binding (400 nM peptide) [1]: 77% | Percent Inhibition of CXCR4/CXCL12 Induced p-MEK (100 nM Test Article) [2]: 7% | Percent Inhibition of CXCR4/CXCL12 Induced p-MEK (1 µM Test Article) [2]: 68% | IC50 for Inhibition of CXCR4 Activation (β-Arrestin recruitment) [3]: 4 nM

LRDYHHSVRSSLRPYTK [SEQ ID NO: 36]
IC50 [4]: 5990 nM | Percent Inhibition of CXCR4/CXCL12 Binding (400 nM peptide) [1]: -11% | Percent Inhibition of CXCR4/CXCL12 Induced p-MEK (100 nM Test Article) [2]: 22% | Percent Inhibition of CXCR4/CXCL12 Induced p-MEK (1 µM Test Article) [2]: -5% | IC50 for Inhibition of CXCR4 Activation (β-Arrestin recruitment) [3]: > 1000 nM

LERYHHSVRSSL [SEQ ID NO: 22]
Percent Inhibition of CXCR4/CXCL12 Binding (400 nM peptide) [1]: 14% | IC50 for Inhibition of CXCR4 Activation (β-Arrestin recruitment) [3]: 17 nM

LERYNHS[dA]RSSLRPYTK [SEQ ID NO: 43]
Percent Inhibition of CXCR4/CXCL12 Binding (400 nM peptide) [1]: 53% | Percent Inhibition of CXCR4/CXCL12 Induced p-MEK (100 nM Test Article) [2]: 5% | Percent Inhibition of CXCR4/CXCL12 Induced p-MEK (1 µM Test Article) [2]: 40% | IC50 for Inhibition of CXCR4 Activation (β-Arrestin recruitment) [3]: 14 nM

LERYHHSVRSS [SEQ ID NO: 23]
Percent Inhibition of CXCR4/CXCL12 Binding (400 nM peptide) [1]: 23% | IC50 for Inhibition of CXCR4 Activation (β-Arrestin recruitment) [3]: 28 nM

LERYHQS[dA]RSSLRPYTK [SEQ ID NO: 52]
Percent Inhibition of CXCR4/CXCL12 Binding (400 nM peptide) [1]: -2% | IC50 for Inhibition of CXCR4 Activation (β-Arrestin recruitment) [3]: 121 nM

LERYHHS[dA]RTSLRPYTK [SEQ ID NO: 76]
Percent Inhibition of CXCR4/CXCL12 Binding (400 nM peptide) [1]: 75% | Percent Inhibition of CXCR4/CXCL12 Induced p-MEK (100 nM Test Article) [2]: 5% | Percent Inhibition of CXCR4/CXCL12 Induced p-MEK (1 µM Test Article) [2]: 44% | IC50 for Inhibition of CXCR4 Activation (β-Arrestin recruitment) [3]: 6 nM

LRRYHQSVRSSLRPYTK [SEQ ID NO: 50]
Percent Inhibition of CXCR4/CXCL12 Binding (400 nM peptide) [1]: -5% | IC50 for Inhibition of CXCR4 Activation (β-Arrestin recruitment) [3]: 121 nM

[dA]ERYHHSVRSSLRPYTK [SEQ ID NO: 34]
IC50 [4]: 4540 nM | Percent Inhibition of CXCR4/CXCL12 Binding (400 nM peptide) [1]: -17% | Percent Inhibition of CXCR4/CXCL12 Induced p-MEK (100 nM Test Article) [2]: -1% | Percent Inhibition of CXCR4/CXCL12 Induced p-MEK (1 µM Test Article) [2]: 2% | IC50 for Inhibition of CXCR4 Activation (β-Arrestin recruitment) [3]: > 1000 nM

LRRYHHSVRSTLRPYTK [SEQ ID NO: 71]
IC50 [4]: 133 nM | Percent Inhibition of CXCR4/CXCL12 Binding (400 nM peptide) [1]: 29% | Percent Inhibition of CXCR4/CXCL12 Induced p-MEK (100 nM Test Article) [2]: 56% | Percent Inhibition of CXCR4/CXCL12 Induced p-MEK (1 µM Test Article) [2]: 94% | IC50 for Inhibition of CXCR4 Activation (β-Arrestin recruitment) [3]: 3 nM

LRRYHHSVRSSLDPYTK [SEQ ID NO: 67]
IC50 [4]: 380 nM | Percent Inhibition of CXCR4/CXCL12 Binding (400 nM peptide) [1]: 3% | Percent Inhibition of CXCR4/CXCL12 Induced p-MEK (100 nM Test Article) [2]: -8% | Percent Inhibition of CXCR4/CXCL12 Induced p-MEK (1 µM Test Article) [2]: 42% | IC50 for Inhibition of CXCR4 Activation (β-Arrestin recruitment) [3]: 14 nM

LRRYHHSVDSSLRPYTK [SEQ ID NO: 66]
IC50 [4]: 563 nM | Percent Inhibition of CXCR4/CXCL12 Binding (400 nM peptide) [1]: -5% | Percent Inhibition of CXCR4/CXCL12 Induced p-MEK (100 nM Test Article) [2]: -7% | Percent Inhibition of CXCR4/CXCL12 Induced p-MEK (1 µM Test Article) [2]: 13% | IC50 for Inhibition of CXCR4 Activation (β-Arrestin recruitment) [3]: 27 nM

[dA]RRYHHSVRSSLRPYTK [SEQ ID NO: 33]
IC50 [4]: 42 nM | Percent Inhibition of CXCR4/CXCL12 Binding (400 nM peptide) [1]: 77% | Percent Inhibition of CXCR4/CXCL12 Induced p-MEK (100 nM Test Article) [2]: 7% | Percent Inhibition of CXCR4/CXCL12 Induced p-MEK (1 µM Test Article) [2]: 42% | IC50 for Inhibition of CXCR4 Activation (β-Arrestin recruitment) [3]: 7 nM

LERYHHSVRSSLR [SEQ ID NO: 21]
Percent Inhibition of CXCR4/CXCL12 Binding (400 nM peptide) [1]: 20% | IC50 for Inhibition of CXCR4 Activation (β-Arrestin recruitment) [3]: 16 nM

LERYHQSVRSSLRPYTK [SEQ ID NO: 51]
Percent Inhibition of CXCR4/CXCL12 Binding (400 nM peptide) [1]: -2% | IC50 for Inhibition of CXCR4 Activation (β-Arrestin recruitment) [3]: 134 nM

LRRYHHTVRSSLRPYTK [SEQ ID NO: 38]
IC50 [4]: 175 nM | Percent Inhibition of CXCR4/CXCL12 Binding (400 nM peptide) [1]: 12% | Percent Inhibition of CXCR4/CXCL12 Induced p-MEK (100 nM Test Article) [2]: 51% | Percent Inhibition of CXCR4/CXCL12 Induced p-MEK (1 µM Test Article) [2]: 96% | IC50 for Inhibition of CXCR4 Activation (β-Arrestin recruitment) [3]: 3 nM

LERYHHS[dA]RSSLRPYSK [SEQ ID NO: 78]
Percent Inhibition of CXCR4/CXCL12 Binding (400 nM peptide) [1]: 72% | Percent Inhibition of CXCR4/CXCL12 Induced p-MEK (100 nM Test Article) [2]: 29% | Percent Inhibition of CXCR4/CXCL12 Induced p-MEK (1 µM Test Article) [2]: 46% | IC50 for Inhibition of CXCR4 Activation (β-Arrestin recruitment) [3]: 12 nM

LERYQHS[dA]RSSLRPYTK [SEQ ID NO: 49]
Percent Inhibition of CXCR4/CXCL12 Binding (400 nM peptide) [1]: 20% | IC50 for Inhibition of CXCR4 Activation (β-Arrestin recruitment) [3]: 66 nM
